What was measured:
[1] = system: J1 mESCs; assay: RA-induced differentiation, expression of Tip60/p400 and SRCAP complex genes (qRT-PCR, Western blot); type: cell-based, mouse; conditions: 1 μM RA, ES cell medium without LIF; vs day 0; technical duplicate
Procedure: mESCs were plated in 96-well ultra-low attachment round bottom plates (Corning) at 1000 cells/well in ES cell medium without LIF. Media was changed every other day before day 8 and daily thereafter. For RA treatment, mESCs seeded on gelatin-coated dishes were treated with 1 μM RA in ES cell medium without LIF. Undifferentiated mESCs cultured with LIF in gelatin-coated dishes, are considered as EB and RA day 0.
Total RNA extraction, reverse transcription and quantitative real-time PCR (qPCR) were performed as previously described. Gene expression values were calculated by normalization to Actb using the comparative CT method. Primers used in the study are listed in Supplementary Table S6.

[2] = target: Gas41 YEATS domain (aa 15–159) S73A (human) (UniProt O95619); assay: ITC; GAS41 YEATS (15-159) WT or mutants titrated with H3(1-34)K27ac peptide; 15 °C; 20 mM Tris-HCl pH 7.5, 500 mM NaCl, 5% glycerol, 2 mM β-mercaptoethanol; One Set of Binding Sites model
[3] = target: Gas41 YEATS domain (aa 15–159) Y74A (human) (UniProt O95619); assay: as above
[4] = target: Gas41 YEATS domain (aa 15–159) with E95 mutated (human) (UniProt O95619); assay: as above
[5] = target: Gas41 YEATS mutants with residues H71, S73, Y74 and F96 replaced with alanine; assay: as above

Compound | change in gene expression of Tip60/p400 and SRCAP complex components [1] | fold reduction of binding against wild type [2] | fold reduction of binding against wild type [3] | fold reduction of binding against wild type [4] | fold reduction of binding against wild type [5]
CC1=C(/C=C/C(C)=C/C=C/C(C)=C/C(=O)O)C(C)(C)CCC1 [RA, retinoic acid] | almost all the genes were downregulated | – | – | – | –
H3 (1–34) K27ac peptide (from UniProt P68431 2-35) | – | 14 fold | 69 fold | 7 fold | 94 fold
